Reference: publication PMC7588230, “Structural basis of αE-catenin–F-actin catch bond behavior” (eLife, 2020)

B1: αE-catenin ABD 666–906 (full length) (domain or fragment)
chain: GQSARAIMAQLPQEQKAKIAEQVASFQEEKSKLDAEVSKWDDSGNDIIVLAKQMCMIMMEMTDFTRGKGPLKNTSDVISAAKKIAEAGSRMDKLGRTIADHCPDSACKQDLLAYLQRIALYCHQLNICSKVKAEVQNLGGELVVSGVDSAMSLIQAAKNLMNAVVQTVKASYVASTKYQKSQGMASLNLPAVSWKMKAPEKKPLVKREKQDETQTKIKRASQKKHVNPVQALSEFKAMDSI
B2: αE-catenin ABD 671–906 (domain or fragment)
chain: AIMAQLPQEQKAKIAEQVASFQEEKSKLDAEVSKWDDSGNDIIVLAKQMCMIMMEMTDFTRGKGPLKNTSDVISAAKKIAEAGSRMDKLGRTIADHCPDSACKQDLLAYLQRIALYCHQLNICSKVKAEVQNLGGELVVSGVDSAMSLIQAAKNLMNAVVQTVKASYVASTKYQKSQGMASLNLPAVSWKMKAPEKKPLVKREKQDETQTKIKRASQKKHVNPVQALSEFKAMDSI
B3: αE-catenin ABD 671–906 W859A (domain or fragment)
chain: AIMAQLPQEQKAKIAEQVASFQEEKSKLDAEVSKWDDSGNDIIVLAKQMCMIMMEMTDFTRGKGPLKNTSDVISAAKKIAEAGSRMDKLGRTIADHCPDSACKQDLLAYLQRIALYCHQLNICSKVKAEVQNLGGELVVSGVDSAMSLIQAAKNLMNAVVQTVKASYVASTKYQKSQGMASLNLPAVSAKMKAPEKKPLVKREKQDETQTKIKRASQKKHVNPVQALSEFKAMDSI
B4: αE-catenin ABD 699–906 (domain or fragment)
chain: DAEVSKWDDSGNDIIVLAKQMCMIMMEMTDFTRGKGPLKNTSDVISAAKKIAEAGSRMDKLGRTIADHCPDSACKQDLLAYLQRIALYCHQLNICSKVKAEVQNLGGELVVSGVDSAMSLIQAAKNLMNAVVQTVKASYVASTKYQKSQGMASLNLPAVSWKMKAPEKKPLVKREKQDETQTKIKRASQKKHVNPVQALSEFKAMDSI
B5: αE-catenin ABD 699–868 (domain or fragment)
chain: DAEVSKWDDSGNDIIVLAKQMCMIMMEMTDFTRGKGPLKNTSDVISAAKKIAEAGSRMDKLGRTIADHCPDSACKQDLLAYLQRIALYCHQLNICSKVKAEVQNLGGELVVSGVDSAMSLIQAAKNLMNAVVQTVKASYVASTKYQKSQGMASLNLPAVSWKMKAPEKKP
B6: αE-catenin ABD 692–906 (domain or fragment)
chain: QEEKSKLDAEVSKWDDSGNDIIVLAKQMCMIMMEMTDFTRGKGPLKNTSDVISAAKKIAEAGSRMDKLGRTIADHCPDSACKQDLLAYLQRIALYCHQLNICSKVKAEVQNLGGELVVSGVDSAMSLIQAAKNLMNAVVQTVKASYVASTKYQKSQGMASLNLPAVSWKMKAPEKKPLVKREKQDETQTKIKRASQKKHVNPVQALSEFKAMDSI
B7: αE-catenin ABD 671–872 (domain or fragment)
chain: AIMAQLPQEQKAKIAEQVASFQEEKSKLDAEVSKWDDSGNDIIVLAKQMCMIMMEMTDFTRGKGPLKNTSDVISAAKKIAEAGSRMDKLGRTIADHCPDSACKQDLLAYLQRIALYCHQLNICSKVKAEVQNLGGELVVSGVDSAMSLIQAAKNLMNAVVQTVKASYVASTKYQKSQGMASLNLPAVSWKMKAPEKKPLVKR
B8: αE-catenin ABD 696–906 (domain or fragment)
chain: SKLDAEVSKWDDSGNDIIVLAKQMCMIMMEMTDFTRGKGPLKNTSDVISAAKKIAEAGSRMDKLGRTIADHCPDSACKQDLLAYLQRIALYCHQLNICSKVKAEVQNLGGELVVSGVDSAMSLIQAAKNLMNAVVQTVKASYVASTKYQKSQGMASLNLPAVSWKMKAPEKKPLVKREKQDETQTKIKRASQKKHVNPVQALSEFKAMDSI

Each binder was assayed against F-actin (rabbit skeletal muscle actin, ADP-actin filaments) (rabbit, UniProt P68135 1-377) (assay: co-sedimentation; dilution series of ABD mixed with an equal volume of 4 μM F-actin, 30 min at room temperature, 20 mM HEPES pH 8.0, 150 mM NaCl, 1 mM DTT; pelleted at 140,717 x g for 20 min at 4°C; Coomassie bands quantified; fit with a Hill coefficient (W859A: one site-specific binding)). Conditions: both partners purified.

Question: B1 was tested. Which Kd did it give?
Answer: Its Kd is 8500 nM.

Question: With B2 as the binder, how does the Kd read?
Answer: Its Kd is 2000 nM.

Question: For B3, which Kd is on record?
Answer: Its Kd is greater than 35000 nM.

Question: How did the Kd turn out when B4 was run?
Answer: The Kd was 500 nM.

Question: Which Kd does the source give for B5 here?
Answer: Its Kd is 2800 nM.

Question: B6 was tested. Which Kd did it give?
Answer: Its Kd is 700 nM.

Question: How did the Kd turn out when B7 was run?
Answer: Its Kd is 5000 nM.

Question: With B8 as the binder, how does the Kd read?
Answer: Its Kd is 400 nM.
